Legend:
[1] = molecular target: T1, Dishevelled (Dsh) protein, endogenous, from Drosophila embryos and Clone-8 cells
T1 chain: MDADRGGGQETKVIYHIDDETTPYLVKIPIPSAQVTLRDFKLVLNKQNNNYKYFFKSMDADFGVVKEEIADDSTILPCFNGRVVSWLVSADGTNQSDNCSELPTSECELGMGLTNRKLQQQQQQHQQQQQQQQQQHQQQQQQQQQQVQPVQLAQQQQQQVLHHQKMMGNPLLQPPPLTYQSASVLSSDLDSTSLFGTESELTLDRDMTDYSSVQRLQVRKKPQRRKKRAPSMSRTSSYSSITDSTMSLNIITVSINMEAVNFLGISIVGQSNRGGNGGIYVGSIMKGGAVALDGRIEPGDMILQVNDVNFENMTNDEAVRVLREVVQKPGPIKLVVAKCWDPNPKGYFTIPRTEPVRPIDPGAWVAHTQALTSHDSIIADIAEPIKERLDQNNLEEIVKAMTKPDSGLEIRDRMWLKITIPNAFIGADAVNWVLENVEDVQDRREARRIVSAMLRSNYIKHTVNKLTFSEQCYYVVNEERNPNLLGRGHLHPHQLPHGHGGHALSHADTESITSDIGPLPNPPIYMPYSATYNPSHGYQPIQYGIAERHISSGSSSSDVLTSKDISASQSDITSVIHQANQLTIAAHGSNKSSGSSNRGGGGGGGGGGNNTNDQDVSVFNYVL

[2] = molecular target: T2, GST-DM5 (GST fusion of the 36 amino acid DM5 segment of Dsh, amino acids 214-249)
T2 chain: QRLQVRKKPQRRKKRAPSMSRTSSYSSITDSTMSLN

B1: Dishevelled Associated Kinase (DAK), endogenous kinase activity from Drosophila embryo and Clone-8 cell lysates (protein)
chain: MSTAMRTTLQSVPEALPADSVSNGTASNVAAPAAPVSSATNAVPPLAAVSSTTATYATNSISTSSHSVKDQQQQQQQQQHDSANANIVSLPPTTTPVANTNTMMPIVTSSNSATSNSTAATPTPASGAAATGGVGSVSQGPATVSASAANTNHSHQHSHQHHHHVANNMTTDGARLSSNNSAVVASSAINHHHHHTPGSGVAPTVNKNVLSTHSAHPSAIKQRTSSAKGSPNMQMRSSAPMRWRATEEHIGKYKLIKTIGKGNFAKVKLAKHLPTGKEVAIKIIDKTQLNPGSLQKLFREVRIMKMLDHPNIVKLFQVIETEKTLYLIMEYASGGEVFDYLVLHGRMKEKEARVKFRQIVSAVQYCHQKRIIHRDLKAENLLLDSELNIKIADFGFSNEFTPGSKLDTFCGSPPYAAPELFQGKKYDGPEVDVWSLGVILYTLVSGSLPFDGSTLRELRERVLRGKYRIPFYMSTDCENLLRKFLVLNPAKRASLETIMGDKWMNMGFEEDELKPYIEPKADLADPKRIEALVAMGYNRSEIEASLSQVRYDDVFATYLLLGRKSTDPESDGSRSGSSLSLRNISGNDAGANAGSASVQSPTHRGVHRSISASSTKPSRRASSGAETLRVGPTNAAATVAAATGAVGAVNPSNNYNAAGSAADRASVGSNFKRQNTIDSATIKENTARLAAQNQRPASATQKMLTTADTTLNSPAKPRTATKYDPTNGNRTVSGTSGIIPRRSTTLYEKTSSTEKTNVIPAETKMASAVKSSRHFPRNVPSRSTFHSGQTRARNNTALEYSGTSGASGDSSHPGRMSFFSKLSSRFSKRPNQ
**Q.** With B1 as the protein, how does the “in vitro kinase assay of Dsh immunoprecipitates” value [1] read?
**A.** Immunoprecipitated Dsh was phosphorylated in this assay.

**Q.** What about the in-gel kinase assay [2] of the same protein?
**A.** A polypeptide of 110 kDa appeared to account for the major DAK activity and two polypeptides of approximately 125 and 64 kDa appeared to represent minor activity.

Reference: patent publication US20040005688
